From patent US10202627B2, “Method for producing trehangelin” (THE KITASATO INSTITUTE, priority 2016, dated 2019)

Legend:
[1] = tested on: animal cells (particularly, human cells); conditions: cited from earlier work
[2] = 3-ketoacyl-CoA reductase activity of recombinant OrfD, LC/MS; format: biochemical; conditions: 0.8 μg orfD with 2.5 μg orfB, 500 μM NADPH, pH 7.5, 27° C., 16 hours
Experimental: (§1) A substrate of the target enzyme is added to the reaction solution. Specifically, in a 3-ketoacyl-CoA synthase activity assay, acetyl-CoA and methylmalonyl-CoA are added. In a 3-ketoacyl-CoA reductase activity assay, 2-methylacetoacetyl-CoA is added. In an enoyl-CoA hydratase activity assay, 3-hydroxy-2-methylbutyryl-CoA is added. In an acyltransferase activity assay, angelyl-CoA is added. The concentration of the substrate may be any concentration as far as it has no effect on the reaction, and is suitably 0.01 mM to 0.2 M of the reaction solution. The enzyme concentration for the reaction is not particularly limited, and is usually in a range of 0.001 mg/ml to 100 mg/ml.
(§2) The activity may be detected by a method that can measure a decrease of substrates or an increase of reaction products during the reaction. Examples of such methods include a method that separates and quantifies a target substance optionally by using thin layer chromatography, column chromatography, high-performance liquid chromatography (HPLC) and the like. […]
Next, it was examined whether the obtained recombinant enzyme protein (OrfD) catalysed production of 3-hydroxy-2-methylbutyryl-CoA from 2-methylacetoacetyl-CoA by employing the following reaction conditions. […] After termination of the reaction by adding 100 μl of methanol, it was analysed on LC/MS.

[3] = acyltransferase activity of OrfC inferred from Streptomyces albus/pOSV556-orfABCD culture; format: cell-based, Streptomyces albus J1074; conditions: inferred from Examples 1 to 4
Experimental: Streptomyces albus/pOSV556-orfABCD was grown by shake culture in 10 ml of a liquid medium containing 1% yeast extract and 1% glucose at 27° C. for 1 day, which was then added 1 ml of 20% trehalose aqueous solution, and the shake culture was continued at 27° C. for 4 more days. The obtained culture medium was added 10 ml of ethanol and stirred for 1 hour. Ethanol in the extract was then removed by distillation under reduced pressure, and 5 ml of ethyl acetate was added to the obtained aqueous solution, which was thoroughly stirred, and then the ethyl acetate phase was collected. After concentration to dryness, the solid was dissolved in 100 μl of methanol and analysed on LC/MS to confirm production of trehangelin (FIG. 1).

[4] = 3-ketoacyl-CoA synthase activity of recombinant OrfB, LC/MS; format: biochemical; conditions: 2.5 μg orfB, 250 μM acetyl-CoA, 250 μM methylmalonyl-CoA, pH 7.5, 27° C., 16 hours
Experimental: as §1, §2
Next, it was examined whether the obtained recombinant enzyme protein (OrfB) catalyses production of 2-methylacetoacetyl-CoA from acetyl-CoA and methylmalonyl-CoA by employing the following reaction conditions. […] After termination of the reaction by adding 100 μl of methanol, it was analysed on LC/MS.

[5] = enoyl-CoA hydratase activity of recombinant OrfA, LC/MS; format: biochemical; conditions: 15.8 μg orfA with orfB and orfD, 500 μM NADPH, pH 7.5, 27° C., 16 hours
Experimental: as §1, §2
Next, it was examined whether the obtained recombinant enzyme protein (OrfA) catalysed production of angelyl-CoA from 3-hydroxy-2-methylbutyryl-CoA by employing the following reaction conditions. […] After termination of the reaction by adding 100 μl of methanol, it was analysed on LC/MS.

In the case of C/C=C(/C)C(=O)OC1C(O)C(CO)OC(OC2OC(CO)C(O)C(OC(=O)/C(C)=C\C)C2O)C1O (stereo not drawn) [Trehangelin A], the “toxicity towards animal cells (particularly, human cells)” value [1] is given as “do not exhibit toxicity”.

For C/C=C(/C)C(=O)OC1C(OC2OC(CO)C(O)C(OC(=O)/C(C)=C\C)C2O)OC(CO)C(O)C1O (stereo not drawn) [Trehangelin B], the “toxicity towards animal cells (particularly, human cells)” value [1] is given as “do not exhibit toxicity”.

B1: OrfD: enzyme protein encoded by SEQ ID NO: 8, 3-ketoacyl-CoA reductase from Polymorphospora rubra K07-0510 (protein)
chain: VTAGTGQPVVAAPGRALADRVVVVTGASRGVGRDLARVFADHGARLGLLARSRDALDDLGGTLTAAGADVLAVPCDVGEPDSLAGAVDAVAGHFGGIDSVVVNAGISPVARRAHHLPIDAWHDVLATNLTGGFVTARAAYPHLARSGRGRLVFTTSVMAATPRRGLSAYAASKAGLEGLTRALAADWAGDGILVNAVAPGFFDTGLGAAFHTSQRLHEQVVGRTPVARFGRADELAAAFVFLAGDACGYLTGQVLAVDGGYGLG
modifications: Polymorphospora rubra K07-0510; CDS (1)..(795)
For B1, the “production of 3-hydroxy-2-methylbutyryl-CoA from 2-methylacetoacetyl-CoA” value [2] was “production of 3-hydroxy-2-methylbutyryl-CoA was observed”.

B2: OrfC: enzyme protein encoded by SEQ ID NO: 6, acyltransferase from Polymorphospora rubra K07-0510 (protein)
chain: MTTSALGAEPGATDPPAAPPVSYAPSGRMPRTINRWPRPFAPRNILGVLRARLRGATISLNQVKFDESTAERNALVMEHALLRHSHVARYAIVGPFTSLFKVRVGPYAGIAEKVTVGALPHWPELPTSHVFPVNAEFGFCAGEWPEVPGTEVGADAWIGAGAVVRAGVRIGHGAIVAAGAVVTRDVADYEIVAGVPARRLRSRFPDDLAERLVALAWWDWPPGFIKANIDLFQRPLTADTLAALEERARALPTPPGGAA
modifications: Polymorphospora rubra K07-0510; CDS (1)..(780)
With B2 the “acyltransferase activity (trehangelin from angelyl-CoA and trehalose)” value [3] was “had an acyltransferase activity”.

B3: OrfB: enzyme protein encoded by SEQ ID NO: 4, 3-ketoacyl-CoA synthase from Polymorphospora rubra K07-0510 (protein)
chain: MSTSTVIGTGSYLPRRVLSSGELARRVGVAENWIVEKTGIRERRVAADEEATSDLATRAARRALRTARLDPADVDLIVLATSTPDRPMPATASTVQANLGARQAVAFDVDAVCSGFVYALVVAHSMLNSEGWARTALVIGADTYSRVLDYTDRRTAVLFGDGAGAVVLGRETGGGSGIRATTLGTDGTLADLVQIPAGGSRRPASAQTVEAGDHYFAMRGGDVRRLANQVFPALVGQLLKAASLDLDQVDLIAAHQANGTMLTDWSRDLGLRPGVLHRTVERYGNTGAASVPVTLDDAVRTGRLGAAATLLMVAFGGGMTWGGVALDWSADPSVPRSNCVR
modifications: Polymorphospora rubra K07-0510; CDS (1)..(1026)
In the case of B3, the “production of 2-methylacetoacetyl-CoA from acetyl-CoA and methylmalonyl-CoA” value [4] is reported as “production of 2-methylacetoacetyl-CoA was observed”.

B4: OrfA: enzyme protein encoded by SEQ ID NO: 2, enoyl-CoA hydratase from Polymorphospora rubra K07-0510 (protein)
chain: VTRPDAPGPPVAAPDPADAVVTAVEPYVVRATINRPARRNAIDLAVIEGLERAIDLAEATGARVLVLRGAGGTFCSGADLRVLEEMSVDPHRVETFMVRLALVLRRLETARFVSVAVVEGHAVAGGCEILLACDVSVAATDARIGDRHLEYGLVPAAGGSVRLARTLPKARGNYLLLAADLLTGEQAAQWGLVSVAVPPTDLEPRVDALVGRLVGHSADALAVVKKMVWTADHEPRPDAMSWERRLFLRHLGSEDVSEGLRAFRERRRPAFRADD
modifications: Polymorphospora rubra K07-0510; CDS (1)..(828)
For B4, the “production of angelyl-CoA from 3-hydroxy-2-methylbutyryl-CoA” value [5] was “production of angelyl-CoA was observed”.
